We go through one molecule from patent US9539315B2, “Methods, agents and peptides for inhibiting matrix metalloproteinase-2 signaling” (New York University, priority 2011, dated 2017).

In one assay the test system is NF-κB pathway. In words: p50 nuclear translocation / NF-κB activation in DCs (ELISA of cytosolic and nuclear fractions). Format: cell-based, human. How it is done: (§1) A) DCs were exposed to MMP-2 […] or zymosan […], a known activator of NF-κB that acts via TLR2, for the indicated time. Cytosolic and nuclear fractions were isolated and p50 contents were measured by ELISA. […] C) OX40L over-expression on DCs induced by MMP-2 is inhibited by an inhibitor of NEMO, the NEMO binding domain (NBD) peptide, but not by the corresponding negative control, a NBD mutant.
(§2) PBMCs were purified from healthy-(HD) or cord blood- (CB) donors and plated at 40×10^6 cells/10 mL/dish in complete IMDM with 5% PHS. Cells were allowed to adhere for 2 h at 37° C. Non-adherent cells were removed. The monocyte-enriched fraction was supplemented with 100 UI/mL rhGMCSF and 300 UI/mL rhIL-4 (R&D Systems) on days 0, 2 and 4. Immature DCs were harvested on day 5 and matured using poly(I:C) at 5 μg/mL/10^6 DCs (Amersham). Secretion of IL-12p70, TNFα, IL-1β, IL-6, IL-8 and IL-10 was assessed on both immature and mature DCs using the Human Inflammatory Cytokine Cytometric Bead Array (BD Pharmingen).
Activation of T cell clones (10,000 cells/100 μL/well), polyclonal T cell populations (100,000 cells/100 μL/well), and DCs (50,000 cells/100 μL/well) can be determined by ELISA. IFNγ (BioSource), TNFα (BioSource), IL-4 (BioSource), IFNβ (VeriKine; PBL interferon source) and MCP-3 (DuoSet; R&D Systems) contents in supernatants were measured according to the manufacturer's instructions. p50 was measured in cytosolic and nuclear fractions (fractions separated using the nuclear separation kit from Active motif) by ELISA (Active motif).
A general note: An ELISA detects its analyte on a solid surface through an enzyme-linked reagent.

The test system of a further assay is OX40L. In words: OX40L expression on DCs (staining). Format: cell-based, human. To be noted: DCs exposed for 2 days, stained for OX40L. How it is done: as §1
A) DCs were exposed to various TLR agonists for 2 days before cells were stained for OX40L. […] B) TLR2-transfected and engineered HEK cells were incubated with MMP-2 (5 mg/ml) or various controls. All conditions were also tested in the presence of a blocking antibody for TLR2. TNFα was used to activate NF-κB in a TLR-independent manner. Twenty hours later, NF-κB activation was measured.
Antibody to OX40L (11C3.1) was from Biolegend. Blocking antibodies to TLR-2 and TLR-6 were from Invivogen. Antibodies to GATA-3, IL-4 (8D4-8), IL-5 (JES1-39D10), IL-13 (JES10-5A2), TNFα (MAb11), IFNγ (25723.11), perforin (δG9), GranzymeB (GB11), CD40 (5C3), CD80 (L307.4), CD83 (HB15e), CD86 (IT2.2), HLA-DR (TU36), fluorescein isothiocyanate-conjugated antibodies to CD45RA (HI100) and CD45RO (UCHL1), and antibody to CD4 (RPA-T4) were purchased from BD Biosciences Pharmingen. Alexa fluor 488-conjugated antibody to IL-17 (eBio64DEC17), phycoerythrine-conjugated antibody to T-bet (4B10).
as §2

The test system of another assay is DCs. In words: Inflammatory cytokine secretion by DCs (cytokine bead array). Format: cell-based, human. Particulars: MMP-2 0.5 and 5 mg/ml, active or inactive; supernatants after eighteen hours. The protocol:
DCs were exposed to MMP-2 (0.5 and 5 mg/ml) in various forms: active, heat-inactivated (HI), inhibited by a specific inhibitor (IMMP-2), PEX (last third of MMP-2, amino acids 445-635 of SEQ ID NO: 1), overlapping peptides (20-mer) spanning MMP-2, or controls. Eighteen hours later, supernatants were harvested and TNFα, IL-6, IL-8 and […] levels were measured by cytokine bead array.
as §2

The next assay addresses T1, TLR2/MyD88 complex (Homo sapiens, UniProt O60603).
T1 construct: endogenous in cells; host or cells: human monocyte-derived dendritic cells (moDCs); alternatively TLR2-transfected HEK cells
In words: Co-immunoprecipitation of MMP-2 and TLR2 from moDCs or TLR2-transfected HEK cells. In kind it is binding. Particulars: n=3. The protocol: 10^6 moDCs/lane or TLR2-transfected HEK cells were incubated for 20 min with or without 5 μg/ml MMP-2 or MMP-9 before being lysed. TLR2 A) and MMP-2 B) were immunoprecipitated using specific antibodies and protein G-agarose. Western blots for MMP-2 (≈70 kD), TLR2 (≈85 kD) and MyD88 (≈35 kD) were then performed. C and D) depict band intensities (mean of 3 independent experiments±s.d.), which are represented as a percentage of the band intensity corresponding to untreated cells. Two-tailed Student's t-tests were used to compare MMP-2- to MMP-9-treated cells. p values≦0.05 (*) were considered statistically significant.
To assess whether MMP-2 directly interacts with TLR2, moDCs and TLR2-transfected HEK cells were utlized. […] Similarly, TLR2 and MyD88 immunoprecipitated (n=3; p<0.05 compared to MMP-9-treated cells) with MMP-2 when moDCs were pre-treated with MMP-2 (FIG. 8B,D).

Entries after “also recorded” stand apart in the source; their conditions may differ.

T1 sequence (O60603 21-784): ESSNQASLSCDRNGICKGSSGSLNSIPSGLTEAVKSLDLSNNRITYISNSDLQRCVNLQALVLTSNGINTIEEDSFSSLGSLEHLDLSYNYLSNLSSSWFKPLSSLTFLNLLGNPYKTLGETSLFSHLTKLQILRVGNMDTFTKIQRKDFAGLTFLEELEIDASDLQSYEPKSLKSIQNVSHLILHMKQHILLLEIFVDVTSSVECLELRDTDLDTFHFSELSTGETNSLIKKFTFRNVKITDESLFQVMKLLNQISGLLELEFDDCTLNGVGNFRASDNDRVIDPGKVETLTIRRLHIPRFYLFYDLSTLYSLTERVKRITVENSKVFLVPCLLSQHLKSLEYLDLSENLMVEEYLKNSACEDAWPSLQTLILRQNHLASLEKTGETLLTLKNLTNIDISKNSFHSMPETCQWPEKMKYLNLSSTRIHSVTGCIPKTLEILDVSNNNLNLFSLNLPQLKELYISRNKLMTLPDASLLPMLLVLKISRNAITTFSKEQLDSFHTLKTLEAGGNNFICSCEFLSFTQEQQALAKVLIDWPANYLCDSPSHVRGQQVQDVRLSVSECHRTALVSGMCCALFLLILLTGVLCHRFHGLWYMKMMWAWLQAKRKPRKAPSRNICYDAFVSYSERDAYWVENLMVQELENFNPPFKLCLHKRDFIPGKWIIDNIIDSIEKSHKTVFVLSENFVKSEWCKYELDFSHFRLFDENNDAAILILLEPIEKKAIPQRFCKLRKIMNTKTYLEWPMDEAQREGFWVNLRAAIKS
T1 sequence (Q99836 whole entry partner): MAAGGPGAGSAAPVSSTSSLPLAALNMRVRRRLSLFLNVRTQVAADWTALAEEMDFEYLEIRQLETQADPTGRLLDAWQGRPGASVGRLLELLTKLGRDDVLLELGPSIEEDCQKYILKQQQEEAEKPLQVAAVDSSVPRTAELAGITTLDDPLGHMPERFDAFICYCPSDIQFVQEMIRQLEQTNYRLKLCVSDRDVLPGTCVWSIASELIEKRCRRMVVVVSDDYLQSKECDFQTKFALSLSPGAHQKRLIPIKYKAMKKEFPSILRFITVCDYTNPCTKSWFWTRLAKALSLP

B1: matrix metalloproteinase-2 (protein)
chain: YNFFPRKPKWDKNQITYRIIGYTPDLDPETVDDAFARAFQVWSDVTPLRFSRIHDGEADIMINFGRWEHGDGYPFDGKDGLLAHAFAPGTGVGGDSHFDDDELWTLGEGQVVRVKYGNADGEYCKFPFLFNGKEYNSCTDTGRSDGFLWCSTTYNFEKDGKYGFCPHEALFTMGGNAEGQPCKFPFRFQGTSYDSCTTEGRTDGYRWCGTTEDYDRDKKYGFCPETAMSTVGGNSEGAPCVFPFTFLGNKYESCTSAGRSDGKMWCATTANYDDDRKWGFCPDQGYSLFLVAAHEFGHAMGLEHSQDPGALMAPIYTYTKNFRLSQDDIKGIQELYGASPDIDLGTGPTPTLGPVTPEICKQDIVFDGIAQIRGEIFFFKDRFIWRTVTPRDKPMGPLLVATFWPELPEKIDAVYEAPQEEKAVFFAGNEYWIYSASTLERGYPKPLTSLGLPPDVQRVDAAFNWSKNKKTYIFAGDKFWRYNEVKKKMDPGFPKLIADAWNAIPDNLDAVVDLQGGGHSYFFKGAYYLKLENQSLKSVKFGSIKSDWLGC
Regarding B1, the “p50 translocation in the nucleus” value in the assay with NF-κB pathway (DCs exposed to MMP-2 (5 μm/ml) or zymosan (10 μm/ml), p50 by ELISA) is “triggers p50 translocation in the nucleus; also recorded: induce p50 translocation in the nucleus after 30 min”. For the same molecule, the “NF-κB activation in DCs” value with NF-κB pathway (active vs heat-inactivated MMP-2) is “NF-κB activation (FIGS. 2A, 2B and 3) at similar levels”. Moreover, the “OX40L expression on DCs” value with OX40L is recorded as “induce OX40L expression”. In addition, in the assay on DCs, the “inflammatory cytokine secretion by DCs (TNFα, IL-6, IL-8, IL-1β)” value is on record as “secrete inflammatory cytokines; also recorded: significantly expressed”. Further, the “MMP-2 and MyD88 immunoprecipitated with TLR2” value with TLR2/MyD88 complex (cells pre-treated 20 min with 5 μg/ml MMP-2 (active or inactive) or MMP-9) is recorded as “immunoprecipitated”. For the same molecule, the “TLR2 and MyD88 immunoprecipitated with MMP-2” value with TLR2/MyD88 complex (moDCs pre-treated with MMP-2) is on record as “immunoprecipitated”.
